Measured values published in FireProtDB (doi:10.1016/j.jmb.2008.02.039).

Conditions: Thermococcus kodakarensis (strain ATCC BAA-918 / JCM 12380 / KOD1); pH 9; 50 °C; GdnHCl; CD; Tris-HCl 20 mM; reversible: Yes; whole UniProt chain shown

B1: Ribonuclease HII wild type, O74035 (protein)
chain: MKIAGIDEAGRGPVIGPMVIAAVVVDENSLPKLEELKVRDSKKLTPKRREKLFNEILGVLDDYVILELPPDVIGSREGTLNEFEVENFAKALNSLKVKPDVIYADAADVDEERFARELGERLNFEAEVVAKHKADDIFPVVSAASILAKVTRDRAVEKLKEEYGEIGSGYPSDPRTRAFLENYYREHGEFPPIVRKGWKTLKKIAEKVESEKKAEERQATLDRYFRKV
  denaturant m value: 5.64 kcal/mol/M
  denaturant midpoint (higher = more stable): 1.85 M
  unfolding free energy: 10.4 kcal/mol
